From PMC2729104 (Nature immunology, 2009)

Columns and labels:
[1] = biological target: protease fragment Bb of factor B (from plasma-purified FB) (human, UniProt P00751 260-764); test: pull-down
[2] = biological target: protease fragment Bb of factor B (from recombinant FB) (human, UniProt P00751 260-764); test: crystal structure
protease fragment Bb of factor B (from recombinant FB), sequence (P00751 260-764): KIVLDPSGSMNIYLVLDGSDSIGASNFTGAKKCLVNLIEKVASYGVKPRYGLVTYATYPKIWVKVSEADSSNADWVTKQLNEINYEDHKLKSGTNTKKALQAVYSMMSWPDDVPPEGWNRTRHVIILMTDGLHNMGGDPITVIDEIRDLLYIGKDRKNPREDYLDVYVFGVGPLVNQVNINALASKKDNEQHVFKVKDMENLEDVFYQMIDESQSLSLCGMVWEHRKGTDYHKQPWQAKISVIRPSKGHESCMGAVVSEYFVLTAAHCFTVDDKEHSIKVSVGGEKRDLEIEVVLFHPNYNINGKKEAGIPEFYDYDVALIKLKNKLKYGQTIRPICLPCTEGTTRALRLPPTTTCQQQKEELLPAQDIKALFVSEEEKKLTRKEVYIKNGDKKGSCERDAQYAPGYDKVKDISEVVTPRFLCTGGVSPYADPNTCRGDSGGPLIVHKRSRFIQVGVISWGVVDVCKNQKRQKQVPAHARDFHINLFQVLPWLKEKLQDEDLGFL

protease fragment Bb of factor B (from plasma-purified FB), sequence (P00751 260-764): as above

B1: SCIN protein with an N-terminal His6 tag (natural protein, Staphylococcus aureus)
chain: STSLPTSNEYQNEKLANELKSLLDELNVNELATGSLNTYYKRTIKISGQKAMYALKSKDFKKMSEAKYQLQKIYNEIDEALKSKY
[1]
  binding result: binds
[2]
  binding result: binds
